Test results from the RNAGym collection of RNA variant scans (doi:10.7554/elife.80360).

B1: HDV Ribozyme (parent)
chain: GGCCGGCAUGGUCCCAGCCUCCUCGCUGGCGCCGGCUGGGCAACAUUCCGAGGGGACCGUCCCCUCGGUAAUGGCGAAUGGGACCCA

Variants of: B1
Test: self-cleavage, relative activity (ratio to wild type); higher = more cleavage; co-transcriptional

Variant | self-cleavage
G1C G82A | 0.0475
G31A G55A | 0.376
C30G U47C | 0.0941
C4U C57A | 1.08
A43G C48U | 0.587
G31A C48G | 0.456
C66A G81U | 0.227
G17C A77G | 0.0615
U37A C86A | 0.256
G1C G5A | 0.0536
U9C G38A | 0.123
G29C U72C | 0
G1A G53A | 0.0449
C48U A78C | 0.115
G67A A70G | 0.712
G6C A70C | 0.133
A43G G74A | 0.724
A43U G73U | 0.141
G1A U79G | 0.0923
C24U A56C | 0.973
G10U C64A | 0.513
G35U A45U | 0.289
G38A G54U | 0.073
G59A U79C | 0.518

Variant | self-cleavage
A45C G73U | 0.193
C14U C58A | 1.13
C48G C84A | 0.932
G52A C85G | 1
C7A U27C | 0.287
A56G C75U | 0.17
U20C G59A | 0.208
C14A U60G | 0.684
C26A C62G | 0.63
C36U A83U | 0.408
G25A C84G | 0.17
C4G A78C | 0.0923
C14U C61G | 1.08
G2C G80A | 0.0573
A77C A83C | 0.172
C41U A71G | 1.06
C58G U69A | 0.911
C13U A77C | 0.293
G25C C63G | 0.0875
C14G G25A | 0.0437
G17A A43G | 0.277
C7U A78C | 0.0923
G80U A83G | 0.253
U9C G31A | 0.269

Variant | self-cleavage
C30U C85U | 0.787
C3A G68C | 0.363
A8G C85A | 0.68
G39C A87U | 0.229
G31A C58A | 0.574
G5U C57U | 0.604
G10C A70G | 0.516
A42C C62A | 0.365
G28U G39U | 0.119
G34C G39U | 0.156
C3G A8C | 0.293
C3G C30G | 0.0594
A8C G31C | 0.119
U46C C61A | 1.09
C3A U20C | 0.108
G11U U23C | 0.554
G54A A87C | 1.06
U9A G34C | 0.375
G38U A78U | 0.0911
C21G C36A | 0.0405
C32A G35C | 0.0405
G2C U60G | 0.0326
G1A A8U | 0
C41A U60A | 0.979

Variant | self-cleavage
G40C G81U | 0.162
G31U C64A | 0.364
U47G G82C | 0.237
A8C A83G | 0.646
C3A G39U | 0.0777
G52A G55A | 0.893
G35U G54C | 0.517
G74U C86G | 0.485
C15A A71U | 0.802
G34U C64U | 0.246
C4U A45C | 0.475
C7A C22A | 0.0941
C22G U27A | 0.208
A56G A83G | 0.831
C21U A43C | 0.0545
U12C C36U | 0.107
G40C C86U | 0.372
C36G G67U | 0.0361
C66U A83C | 0.298
C15A C63U | 0.649
U65A G74U | 0.428
U23A G54C | 1.15
G5C G50A | 0.302
C14G C48U | 0.831

Variant | self-cleavage
C4A C62G | 0
G55A A56C | 0.895
C48A A77G | 0.601
G5A G59A | 0.407
G10C C64A | 0.504
C22G G35C | 0.0978
C61G U69C | 0.96
U47G G53U | 0.973
G40A C58G | 1.02
C58A G73A | 0.787
C61A U69C | 0.906
U12G C26U | 0.776
C32A G82C | 0.0396
A8G U23C | 0.612
G17C G82C | 0.133
C36A A77G | 0.0791
A71C A78G | 0.615
A8U U65C | 0.895
A51G C62U | 1.01
G38A G50C | 0.0831
U12G G31A | 0.0504
C49U C85A | 1.17
G29C A45U | 0.0519
C14U U69C | 1.4

Variant | self-cleavage
U12C A56C | 0.453
A56G A87U | 0.897
C22A G55U | 0.353
C22G G50A | 0.0504
G29A C64A | 0.22
C15A A16U | 0.499
C19U G35U | 0.0519
G34C G50U | 0.175
G5A G17A | 0.172
C61G G68C | 0.665
C36G U46G | 0.0692
C4U | 0.758
G34C G54U | 0.123
C30A A78G | 0.309
A42G G76A | 0.631
A8U A87C | 0.845
C24U G40A | 0.701
U46A G52A | 0.776
A8C C26G | 1.11
C13G A56G | 0.0536
U27G C61G | 0.86
U27G G53A | 0.923
C26G G35C | 0.131
C30U G34A | 0.0875

Variant | self-cleavage
U65G G74A | 0.3
G31A A83U | 0.178
G31A A83G | 0.228
C22G G38U | 0.117
U47C C85U | 0.831
G39U C49A | 0.604
C32A C85U | 0.231
U9C U12A | 0.511
A71C A87C | 0.755
U47G A83C | 0.434
C33A G81U | 0.0978
C36G A77U | 0.177
G54C G55A | 1.08
G17C C64G | 0.298
G1C G80C | 0.0475
U69C U79A | 0.684
C41G G54C | 0.849
U37A A78U | 0.0369
C4U U23C | 0.571
G6U C32G | 0.798
U27C A42G | 0
G52A C64G | 0.935
C4U C58U | 1.15
